The text below walks through data of patent US20150037348A1 (AbbVie / Abbott, published 2015).

B1: 26-1 (scFv, V domains shown)
VH: QVQLVQSGGGVVQPGRSLRLSCAASGFTFSSYGMHWVRQAPGKGLEWVAFIRYDGSNKYYADSVKGRFTISRDNSKNTLYLQMKSLRAEDTAVYYCTTHGSHDNWGQGTMVTVSS
VL: SYVLTQPPSVSGTPGQRVTISCSGGRSNIGSNTVKWYQQLPGTAPKLLIYGNDQRPSGVPDRFSGSKSGTSASLAITGVQAEDEADYYCQSYDSSLWGSRVFGTGTKVTVL
notes: scFv; also called 26-1 (2, 3)
B2: 70-1 (scFv, V domains shown)
VH: B1 VH
VL: B1 VL with W97R
notes: scFv
B3: 103-8 & 2 (scFv, V domains shown)
VH: B1 VH with T97K
VL: B1 VL with S91T, S94K, S95G, L96F, W97T, R100S
notes: scFv
B4: Y61 (scFv, V domains shown)
VH: B1 VH with T97K
VL: B1 VL with S94R, S95G, L96T, W97H, G98P, S99A, R100L, V101L
notes: also called Y61 scFv; clone Y61; not shown: scFv linker and any tags
B5: C6 (scFv, V domains shown)
VH: B1 VH with T97K
VL: B1 VL with S94R, S95G, L96Q, W97T, G98P, R100I, V101T
notes: scFv clone
B6: Y38 (scFv, V domains shown)
VH: B1 VH with T97K
VL: B1 VL with S94R, S95G, L96T, W97H, G98P, R100I, V101T
notes: scFv clone
B7: Y174 (scFv, V domains shown)
VH: B1 VH with T97K
VL: B1 VL with S94R, S95G, L96T, W97T, G98P, S99A, R100P, V101E
notes: scFv clone
B8: Y45 (scFv, V domains shown)
VH: B1 VH with T97K
VL: B1 VL with S94R, S95G, L96T, W97D, G98P, S99A, R100I
notes: scFv clone
B9: AO3 (scFv, V domains shown)
VH: B1 VH with T97K
VL: B1 VL with S94R, S95G, L96T, W97H, G98P, S99L, R100T, V101M
notes: scFv clone; only the CDR3s are tied to it
B10: Y139 (scFv, V domains shown)
VH: B1 VH with T97K
VL: B1 VL with S94R, S95G, L96S, W97H, G98P, S99A, R100L, V101T
notes: scFv clone
B11: Y177 (scFv, V domains shown)
VH: B1 VH with T97K
VL: B1 VL with S94R, S95G, L96S, W97H, G98P, S99T, R100L, V101I
notes: scFv clone
B12: Y61-L50Y (scFv, V domains shown)
VH: B1 VH with T97K
VL: QSVLTQPPSVSGAPGQRVTISCSGSRSNIGSNTVKWYQQLPGTAPKLLIYYNDQRPSGVPDRFSGSKSGTSASLAITGLQAEDEADYYCQSYDRGTHPALLFGTGTKVTVL
B13: G6 (scFv, V domains shown)
VH: B1 VH with T97K
VL: B1 VL with S94R, S95G, L96T, W97H, G98P, S99L, R100T, V101I
notes: scFv clone
B14: 73-B7 (scFv, V domains shown)
VH: B1 VH with H102Q
VL: SYVLTQPPSVSGTPGQRVTISCSGGRSNIGSNTVKWYQQLPGTAPKLLIYGNDQRPSGVPDRFSGSKSGTSASLAITGVQAEDEADYYCQSYDSSLRGSRVFGTGTKVTVLG
B15: 149-9 (scFv, V domains shown)
VH: B1 VH with T97K, Q107H
VL: B1 VL with D93E, S94R, S95G, L96F, W97T, R100M
notes: scFv
B16: 78-35 (scFv, V domains shown)
VH: B1 VH with H99S, H102Y, N104Y
VL: B1 VL with W97T
notes: scFv
B17: 170-25 (scFv, V domains shown)
VH: B1 VH with H102Q, N104T
VL: B1 VL with W97R
notes: scFv
B18: 170-23 (scFv, V domains shown)
V domain 1: B1 VH
V domain 2: B1 VL with S94R, S95G, L96F, W97T, S99A, F102W
notes: scFv
B19: 136-24 (scFv, V domains shown)
VH: B1 VH
VL: B1 VL with S94N, S95A, L96V, W97T, G98A, R100K
notes: scFv
B20: A4 (scFv, V domains shown)
VH: B1 VH with T97K
VL: B1 VL with S94R, S95G, L96R, W97N, G98P, S99A, R100L, V101T
notes: scFv clone
B21: L3.3R3M-B3 (scFv, V domains shown)
VH: B1 VH with T97K
VL: B1 VL with S94R, S95G, L96F, W97T, R100M
notes: scFv clone
B22: L3.3R3M-H6 (scFv, V domains shown)
VH: B1 VH with T97K
VL: B1 VL with S94R, S95G, L96N, G98P, S99N, R100S, V101N
notes: scFv clone
B23: L3.3R3M-G7 (scFv, V domains shown)
VH: B1 VH with T97K
VL: B1 VL with S94R, S95G, L96F, W97T, R100M
notes: scFv clone
B24: L3.3R3M-A3 (scFv, V domains shown)
VH: B1 VH with T97K
VL: B1 VL with S94R, S95G, L96F, W97T, R100M
notes: scFv clone
B25: L3.3R3M-G8 (scFv, V domains shown)
VH: B1 VH with T97K
VL: B1 VL with S94R, S95G, L96S, W97Y, G98P, S99A, R100L, V101R
notes: scFv clone
B26: L3.3R3M-H11 (scFv, V domains shown)
VH: B1 VH with T97K
VL: B1 VL with S94R, S95G, L96M, W97I, G98P, S99A, R100L, V101T
notes: scFv clone
B27: A12 (scFv, V domains shown)
VH: B1 VH with T97K
VL: B1 VL with S94R, S95G, L96T, W97T, G98P, S99R, R100P, V101M
notes: scFv clone
B28: 99-G11 (scFv, V domains shown)
VH: B1 VH with T97K
VL: B1 VL with S95R, L96F, W97T
notes: scFv clone
B29: A5 (scFv, V domains shown)
VH: B1 VH with T97K
VL: B1 VL with S94R, S95G, L96T, W97H, G98P, R100M, V101L
notes: scFv clone
B30: 101-11 IgG1 (antibody, V domains shown)
VH: B1 VH
VL: B1 VL with S94R, S95G, L96F, W97T
notes: IgG1

Where a chain is given by its changes, count along the chain named. Names and notes keep the numbering of the source.

One assay concerns the target T1, human IL-12 (human, UniProt P29459 23-219; P29460 23-328).
T1 sequence (looked up) 1: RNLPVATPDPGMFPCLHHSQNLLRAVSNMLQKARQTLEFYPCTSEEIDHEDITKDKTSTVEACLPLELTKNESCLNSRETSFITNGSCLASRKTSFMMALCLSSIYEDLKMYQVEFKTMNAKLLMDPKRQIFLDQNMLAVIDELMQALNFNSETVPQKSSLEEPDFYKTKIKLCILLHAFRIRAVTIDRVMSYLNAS
T1 sequence (looked up) 2: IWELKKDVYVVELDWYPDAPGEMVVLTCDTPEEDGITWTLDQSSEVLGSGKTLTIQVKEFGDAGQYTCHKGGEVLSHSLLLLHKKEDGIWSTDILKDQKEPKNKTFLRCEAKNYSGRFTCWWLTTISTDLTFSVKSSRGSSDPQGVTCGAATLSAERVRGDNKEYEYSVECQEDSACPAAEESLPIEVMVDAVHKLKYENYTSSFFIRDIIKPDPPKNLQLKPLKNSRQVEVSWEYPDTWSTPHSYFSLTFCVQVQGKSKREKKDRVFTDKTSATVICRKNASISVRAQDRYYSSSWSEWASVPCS
Nature of the assay: cell-based or functional assay.
Consider B1, for which the “PHA assay IC50” value was 60 nM.

For B2, the “PHA assay IC50” value was 200 nM.

Regarding B3, the “PHA assay IC50” value was found to be 1.5 nM.

Another assay has as its target T2, recombinant human IL-12 (rhIL-12) (human, UniProt P29459 23-219; P29460 23-328).
T2 sequence (looked up) 1: T1 sequence (looked up) 1
T2 sequence (looked up) 2: T1 sequence (looked up) 2
Kind of assay: cell-based or functional assay.
As for B4, the “PHA assay IC50” value was 0.14 nM.

B5: the “PHA assay IC50” value was found to be 10 nM.

Turning to B6, the “PHA assay IC50” value amounted to 2.6 nM.

Turning to B7, the “PHA assay IC50” value was determined as 2 nM.

Consider B8, for which the “PHA assay IC50” value was 4.3 nM.

As to B9, the “PHA assay IC50” value was 0.4 nM.

Consider B10, for which the “PHA assay IC50” value was 0.45 nM.

B11: the “PHA assay IC50” value is 1 nM.

As for B12, the “IFN gamma IC50” value turned out to be 0.02 nM.

In the case of B13, the “PHA assay IC50” value was 1 nM.

The target in the next assay is T1, human IL-12. Kind of assay: SPR (BIAcore), IL-12 chip. The source says: The system utilizes the optical properties of SPR to detect alterations in protein concentrations within a dextran biosensor matrix. Proteins are covalently bound to the dextran matrix at known concentrations. […] To determine the off rate (koff), on rate (kₒₙ), association rate (Ka) and dissociation rate (Kd) constants, BIAcore kinetic evaluation software (version 2.1) was used.
In general terms: SPR reads the build-up and loss of mass on a sensor chip optically.
What is called koff is a measure of how fast the partners let go of each other. In turn, B1 gave a koff of 0.0074 s⁻¹.

For the molecule B14, the koff was determined as 0.0025 s⁻¹.

B15: the dissociation rate constant (koff) came to 0.00354 s⁻¹.

For the molecule B2, the off-rate constant (koff) came to 0.0134 s⁻¹.

Turning to B16, the dissociation rate constant (koff) worked out at 0.0499 s⁻¹.

The molecule B17 displayed a koff of 0.0005 s⁻¹.

The molecule B18 had an off-rate constant (koff) of 0.001 s⁻¹.

Consider B3, for which the koff worked out at 0.00053 s⁻¹.

Consider B19, for which the koff is 0.00089 s⁻¹.

Another assay has as its target T2, recombinant human IL-12 (rhIL-12). Kind of assay: BIAcore SPR, IL-12 on chip.
For the molecule B4, the koff was 0.000275 s⁻¹.

For the molecule B20, the koff is 0.00063 s⁻¹.

On to B5, for which the koff was determined as 0.00107 s⁻¹.

With B21, the koff was 5.51 s⁻¹.

B6: the koff was found to be 0.000508 s⁻¹.

Turning to B7, the off-rate (koff) is 0.000755 s⁻¹.

With B8, the koff stood at 0.000617 s⁻¹.

Regarding B22, the koff was determined as 5.69 s⁻¹.

Take B9: the dissociation rate constant (koff) was 0.000304 s⁻¹.

For the molecule B23, the off-rate constant (koff) came out at 4.24 s⁻¹.

For the molecule B24, the dissociation rate constant (koff) was determined as 5.37 s⁻¹.

With B10, the koff is 0.000592 s⁻¹.

Turning to B25, the koff turned out to be 5.55 s⁻¹.

Consider B26, for which the koff came out at 3.95 s⁻¹.

Turning to B27, the off-rate constant (koff) is 0.000557 s⁻¹.

Consider B11, for which the off-rate constant (koff) was found to be 0.000661 s⁻¹.

For the molecule B13, the koff was found to be 0.000508 s⁻¹.

Consider B28, for which the dissociation rate constant (koff) came to 0.0043 s⁻¹.

For the molecule B29, the koff was 0.00045 s⁻¹.

For a further assay, the target named is T1, human IL-12. Nature of the assay: RB assay: 125I-hIL-12 binding to PHA blasts. The protocol: (§1) PHA blast cells isolated as described above, were washed once and resuspended in binding buffer to a cell density of 2×10⁷ cells/ml. […] The cell pellet was examined for cell bound radioactivity using a gamma counter. […] Incubations were carried out in duplicate.
As usually defined, the IC50 is the concentration at which inhibition is half-maximal. Molecule B14 gave an IC50 of 7 nM.

B15: the IC50 was determined as 0.18 nM.

Regarding B16, the concentration for half-maximal inhibition (IC50) was 400 nM.

B30 had an IC50 of 1.6 nM.

As to B17, the half-inhibitory concentration (IC50) worked out at 0.05 nM.

The molecule B18 registered a 50% inhibitory concentration (IC50) of 0.2 nM.

Consider B19, for which the half-maximal inhibitory concentration (IC50) was 1 nM.

For another assay, the target named is T2, recombinant human IL-12 (rhIL-12). Kind of assay: receptor binding assay, 125I-hIL-12 on PHA blasts. As to the method: as §1
As for B4, the IC50 is 0.04 nM.

Consider B20, for which the half-inhibitory concentration (IC50) stood at 0.25 nM.

As to B5, the IC50 worked out at 0.35 nM.

For B6, the 50% inhibitory concentration (IC50) turned out to be 0.055 nM.

B7: the IC50 worked out at 0.06 nM.

On to B8, for which the half-inhibitory concentration (IC50) was 0.04 nM.

In the case of B9, the IC50 was 0.03 nM.

On to B10, for which the IC50 was determined as 0.03 nM.

Regarding B27, the half-inhibitory concentration (IC50) was found to be 0.25 nM.

In the case of B11, the IC50 amounted to 0.05 nM.

On to B12, for which the IC50 was determined as 0.02 nM.

As for B13, the IC50 is 0.1 nM.

With B29, the IC50 came to 0.066 nM.
